The results in this text go back to patent US20260191905A1 (MODERNATX, published 2026).

This experiment deals with T1, human GPC3 recombinant protein (human, UniProt P51654 25-559).
T1 construct: also called huGPC3; Human GPC3 protein
Put plainly: SPR epitope binning on human GPC3. Here is the method: The 19 VHH-His tagged domains were then evaluated for epitope-binding site. All VHHs were injected one at a time to evaluate the epitope binding site for each VHH domain. […] Human GPC3 was injected followed by an off rate wash for 4 minutes. No binding is observed if the VHH binds at the same epitope as VHH2, while a second binding event is observed if the VHH binds at a different epitope. All VHHs were binned into two groups based on the epitopes. VHH2 and VHH3 bind the same epitope and all other VHs bind the second epitope (FIG. 19).

T1 sequence (P51654 25-559 limits assumed): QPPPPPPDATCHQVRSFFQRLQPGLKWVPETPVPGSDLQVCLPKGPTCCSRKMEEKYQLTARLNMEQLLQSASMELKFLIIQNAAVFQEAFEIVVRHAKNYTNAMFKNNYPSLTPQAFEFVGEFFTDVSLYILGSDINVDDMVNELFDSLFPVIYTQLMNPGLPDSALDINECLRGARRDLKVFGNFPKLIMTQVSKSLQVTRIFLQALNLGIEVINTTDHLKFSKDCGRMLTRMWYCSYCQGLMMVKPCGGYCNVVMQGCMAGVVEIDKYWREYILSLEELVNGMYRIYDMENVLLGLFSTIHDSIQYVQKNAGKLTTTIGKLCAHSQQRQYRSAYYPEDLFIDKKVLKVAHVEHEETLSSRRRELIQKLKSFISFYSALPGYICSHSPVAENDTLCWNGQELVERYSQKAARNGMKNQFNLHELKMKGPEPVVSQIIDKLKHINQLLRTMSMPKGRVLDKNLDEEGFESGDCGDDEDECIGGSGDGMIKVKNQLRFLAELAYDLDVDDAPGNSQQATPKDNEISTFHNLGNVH

B1: anti-GPC3 VHH-His tagged domain VHH19 (VHH)
VHH: EEQLVESGGGLVQPGGSLRLSCAASGFTFSSYAMSWVRQAPGKEPEWVSSISGGGGSTYYADSLKGRFTISRDNSKNTLYLQMNSLRAEDTAVYYCARDPRYGEPPFDYRCQGTTVTVSS
notes: Produced from a mammalian expression vector as a His fusion; not shown: His tag
For the molecule B1, the binding result is “binds”.
